This note sets out measurements from patent CN1542019A (CHINA ANTIBODY PHARMACY CO LTD, dated 2004).

The target of experiment [1] is T1, CD22抗原 (CD22 on Raji human lymphoma cells) (human, UniProt P20273 20-847).
T1 construct: whole, on cells; The assays are on Raji cells; also called Raji人淋巴瘤细胞; Raji细胞
T1 sequence (looked up): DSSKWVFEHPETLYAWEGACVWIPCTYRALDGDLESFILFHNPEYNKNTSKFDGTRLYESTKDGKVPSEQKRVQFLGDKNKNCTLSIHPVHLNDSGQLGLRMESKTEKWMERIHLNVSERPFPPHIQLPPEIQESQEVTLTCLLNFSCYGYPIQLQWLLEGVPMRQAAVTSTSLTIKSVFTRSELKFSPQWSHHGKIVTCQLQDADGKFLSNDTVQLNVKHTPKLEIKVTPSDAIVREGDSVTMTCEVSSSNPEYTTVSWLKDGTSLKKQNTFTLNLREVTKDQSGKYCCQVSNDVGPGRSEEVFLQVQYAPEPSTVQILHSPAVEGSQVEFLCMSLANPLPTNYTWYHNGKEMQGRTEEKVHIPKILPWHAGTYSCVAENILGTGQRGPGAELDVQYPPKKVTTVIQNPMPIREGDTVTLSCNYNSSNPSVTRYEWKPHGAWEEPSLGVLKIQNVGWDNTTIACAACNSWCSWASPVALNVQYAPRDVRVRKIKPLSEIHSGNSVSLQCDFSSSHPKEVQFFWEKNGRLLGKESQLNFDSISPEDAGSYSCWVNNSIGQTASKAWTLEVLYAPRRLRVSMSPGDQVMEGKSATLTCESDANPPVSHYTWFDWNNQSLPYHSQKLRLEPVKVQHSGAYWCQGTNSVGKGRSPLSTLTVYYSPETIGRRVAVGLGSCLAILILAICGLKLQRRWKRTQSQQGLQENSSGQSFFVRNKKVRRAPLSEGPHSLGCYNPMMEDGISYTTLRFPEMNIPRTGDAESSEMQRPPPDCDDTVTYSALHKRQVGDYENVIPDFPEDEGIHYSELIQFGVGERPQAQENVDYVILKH
Kind of experiment: flow cytometry on Raji human lymphoma cells, four purified batches of different production and storage time. (A flow cytometer gives signals particle by particle.)

Experiment [2] has as its target T1, CD22抗原 (CD22 on Raji human lymphoma …). Kind of experiment: competitive flow cytometry on Raji cells; unlabelled murine parent antibody as competitor of its FITC conjugate.

B1: 嵌合抗体SM03 (chimeric anti-CD22 antibody SM03, human IgG1/human Kappa, variable regions modified at the N- and C-termini) (antibody, V domains shown)
VH: QVQLQESGGGLVKPGGSLKLSCAASGFAFSIYDMSWVRQWPEKRLEWVAYISSGGGTTYYPDTVKGRFTISRDNAKNTLYLQMSSLKSEDTAMYYCARHSGYGSSYGVLFAYWGQGTLVTVSS
VL: DIQLTQTTSSLSASLGDRVTISCRASQDISNYLNWYQQKPDGTVKLLIYYTSILHSGVPSRFSGSGSGTDYSLTISNLEQEDFATYFCQQGNTLPWTFGGGTKLEIKR
notes: Expressed in SP2/0 cells, purified on Protein A; also called 嵌合单克隆抗体SM03; SM03试产第一批抗体
With B1, in experiment [1], the binding result is recorded as “binds”.

B2: 嵌合抗体SM03的鼠源母抗体 (murine parent antibody of SM03) (antibody, V domains shown)
VH: EVQLVESGGGLVKPGGSLKLSCAASGFAFSIYDMSWVRQWPEKRLEWVAYISSGGGTTYYPDTVKGRFTISRDNAKNTLYLQMSSLKSEDTAMYYCARHSGYGSSYGVLFAYWGQGTLVTVSA
VL: DIQMTQTTSSLSASLGDRVTISCRASQDISNYLNWYQQKPDGTVKLLIYYTSILHSGVPSRFSGSGSGTDYSLTISNLEQEDFATYFCQQGNTLPWTFGGGTKLEIK
notes: Whole mouse hybridoma antibody (mouse IgG heavy chain, kappa light chain by the cloning primers); also called 鼠源抗体; FITC-鼠源母抗体偶联物
On to B2, for which the binding result in experiment [2] was “binds”.
